Test results from patent publication US20150344570A1 (published 2015).
Where a chain is given by its changes, count along the chain named.

How the values were obtained:
[1] = target: T1, FcγRIIa H (FcγRIIa, allotype with His at position 131), extracellular domain with C-terminal His tag (human, UniProt P12318 34-217); test: SPR (Biacore); He/Con_2aH divided by He/Con_2b (FcγRIIb)
T1 construct: extracellular domain; also called FcgRIIa H; 2aH; not shown: His tag at the C terminus
T1 sequence (looked up): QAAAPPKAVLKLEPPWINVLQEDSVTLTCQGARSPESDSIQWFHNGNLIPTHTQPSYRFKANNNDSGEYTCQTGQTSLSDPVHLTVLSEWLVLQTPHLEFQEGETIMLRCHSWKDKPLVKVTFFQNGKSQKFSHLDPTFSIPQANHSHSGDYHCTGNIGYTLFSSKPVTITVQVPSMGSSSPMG

[2] = target: T2, FcγRIIb, extracellular domain with C-terminal His tag (human, UniProt P31994 43-217); test: SPR (Biacore), relative binding vs GpH7-A5/GpH7-B3/GpL16-k0
T2 construct: extracellular domain; also called FcgRIIb; 2b; not shown: His tag at the C terminus
T2 sequence (looked up): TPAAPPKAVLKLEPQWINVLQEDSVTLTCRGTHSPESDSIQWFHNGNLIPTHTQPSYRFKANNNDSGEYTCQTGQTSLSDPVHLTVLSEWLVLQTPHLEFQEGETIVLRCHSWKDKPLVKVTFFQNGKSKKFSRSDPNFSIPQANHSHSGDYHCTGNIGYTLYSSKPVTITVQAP

[3] = target: T1, FcγRIIa H (FcγRIIa, allotype with His …); test: as above
FcgRIIaH = target: T3, FcgRIIaH (human, UniProt P12318 34-217); test: SPR (Biacore); KD of H240-Kn033/H240-Hl033/L73-k0 divided by KD of this variant
T3 construct: extracellular domain; also called FcγRIIa H; FcgRIIa type H; not shown: His tag attached to the C terminus
T3 sequence (looked up): T1 sequence (looked up)

FcgRIIIaV = target: T4, FcgRIIIaV (human, UniProt P08637 17-208); test: as above
T4 construct: extracellular domain; also called FcγRIIIa V; 3aV; not shown: His tag attached to the C terminus
T4 sequence (P08637 17-208 F176V limits assumed): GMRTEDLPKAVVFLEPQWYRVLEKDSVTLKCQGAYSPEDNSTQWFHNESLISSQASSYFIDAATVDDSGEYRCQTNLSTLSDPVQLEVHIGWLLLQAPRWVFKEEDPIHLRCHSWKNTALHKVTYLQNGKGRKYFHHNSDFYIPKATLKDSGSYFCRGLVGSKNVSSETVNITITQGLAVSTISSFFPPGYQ

FcgRIIaR = target: T5, FcgRIIaR (human, UniProt P12318 34-217); test: as above
T5 construct: extracellular domain; also called FcγRIIa R; FcgRIIa type R; not shown: His tag attached to the C terminus
T5 sequence (looked up): T1 sequence (looked up) with H134R

FcgRIIIaF = target: T6, FcgRIIIaF (human, UniProt P08637 17-208); test: as above
T6 construct: extracellular domain; also called FcγRIIIa F; 3aF; not shown: His tag attached to the C terminus
T6 sequence (P08637 17-208): as the sequence (P08637 17-208 F176V limits assumed) above, with V160F counted along it

FcgRIIb = target: T7, FcgRIIb (human, UniProt P31994 43-217); test: as above
T7 construct: extracellular domain; also called FcγRIIb; 2b; not shown: His tag attached to the C terminus
T7 sequence (looked up): T2 sequence (looked up)

B1: GpH7-A5/GpH7-B3 variant A327_03V/GpL16-k0 (antibody, human IgG1, kappa)
heavy 1: not shown
heavy 2: not shown
light: DIVMTQSPLSLPVTPGEPASISCQASESLVHSNRNTYLHWYLQKPGQSPQLLIYKVSNRFSGVPDRFSGSGSGTDFTLKISRVEAEDVGVYYCSQNTHVPPTFGQGTKVEIERTVAAPSVFIFPPSDEQLKSGTASVVCLLNNFYPREAKVQWKVDNALQSGNSQESVTEQDSKDSTYSLSSTLTLSKADYEKHKVYACEVTHQGLSSPVTKSFNRGEC
notes: Heterodimerized anti-glypican-3 IgG1; mutation in one H chain only; also called He Ab
- He_2aH/2b (IIaH/IIb) [1]: 0.54 ratio
- He/Con_2b [2]: 94.7 % of HeCon Ab (=100)
- He/Con_2aH [3]: 51 % of HeCon Ab (=100)

B2: GpH7-A5/GpH7-B3 variant A327_08L/GpL16-k0 (antibody, human IgG1, kappa)
heavy 1: not shown
heavy 2: not shown
light: B1 light
notes: as for B1
- He_2aH/2b (IIaH/IIb) [1]: 0.74 ratio
- He/Con_2b [2]: 63.1 % of HeCon Ab (=100)
- He/Con_2aH [3]: 46.9 % of HeCon Ab (=100)

B3: GpH7-A5/GpH7-B3 variant A327_07I/GpL16-k0 (antibody, human IgG1, kappa)
heavy 1: not shown
heavy 2: not shown
light: B1 light
notes: as for B1
- He_2aH/2b (IIaH/IIb) [1]: 0.46 ratio
- He/Con_2b [2]: 127 % of HeCon Ab (=100)
- He/Con_2aH [3]: 58.4 % of HeCon Ab (=100)

B4: H240-Kn213/H240-Hl076/L73-k0 (antibody, human IgG1, kappa)
heavy 1: QDQLVQSGAEVKKPGASVKVSCKASGFNIKDTYIQWVRQAPGQGLEWMGRIDPLRKQTKYREKFEGRVTITADTSTNTAYMELSSLRSEDTAVYYCVRSGREFDYWGQGTLVTVSSASTKGPSVFPLAPSSKSTSGGTAALGCLVKDYFPEPVTVSWNSGALTSGVHTFPAVLQSSGLYSLSSVVTVPSSSLGTQTYICNVNHKPSNTKVDKKVEPKSCDKTHTCPPCPAPEAQWGPMVFLFPPKPKDTLMISRTPEVTCVVVDVSDEEPEVKFNWYVDGVEVHNAKTKPREEQYNATYRVVSVLTVLHQDWLNGKEYKCKVSNKALPAPIEKTISKAKGQPREPQVCTLPPSRDELTKNQVSLWCLVKGFYPSDIAVEWESNGQPENNYKTTPPVLDSDGSFFLYSKLTVDKSRWQQGNVFSCSVMHEALHNHYTQKSLSLSP
heavy 2: QDQLVQSGAEVKKPGASVKVSCKASGFNIKDTYIQWVRQAPGQGLEWMGRIDPLRKQTKYREKFEGRVTITADTSTNTAYMELSSLRSEDTAVYYCVRSGREFDYWGQGTLVTVSSASTKGPSVFPLAPSSKSTSGGTAALGCLVKDYFPEPVTVSWNSGALTSGVHTFPAVLQSSGLYSLSSVVTVPSSSLGTQTYICNVNHKPSNTKVDKKVEPKSCDKTHTCPPCPAPELLGGPSVFLFPPKPKDTLMISRTPEVTCVVVDVSHEEPEVKFNWYVDGVEVHNAKTKPREEQYNSTYRVVSVLTVLHQDWLNGKEYKCKVSNDALPMPIEETISKAKGQPREPQVYTLPPSRCELTKNQVSLSCAVKGFYPSDIAVEWESNGQPENNYKTTPPVLDSDGSFFLVSKLTVDKSRWQQGNVFSCSVMHEALHNHYTQKSLSLSP
light: DIQMTQSPSSLSASVGDRVTITCRASQDIHKYIAWYQQKPGQAPRLLIQYTSTLQPGVPSRFSGSGSGTDYTFTISSLQPEDIATYYCLQYEQLRTFGGGTKVEIKRTVAAPSVFIFPPSDEQLKSGTASVVCLLNNFYPREAKVQWKVDNALQSGNSQESVTEQDSKDSTYSLSSTLTLSKADYEKHKVYACEVTHQGLSSPVTKSFNRGEC
notes: Anti-epiregulin heterodimerized IgG1, knobs-into-holes
- fold 2aH (FcgRIIaH): 2.5 fold
- fold 3aV (FcgRIIIaV): 65.8 fold
- fold 2aR (FcgRIIaR): 0.9 fold
- fold 3aF (FcgRIIIaF): 112 fold
- fold 2b (FcgRIIb): 0.5 fold

B5: H240-Kn221/H240-Hl068/L73-k0 (antibody, human IgG1, kappa)
heavy 1: B4 heavy 1 with A233T, Q234Y, E269D, A326D
heavy 2: B4 heavy 2 with M329K
light: B4 light
notes: as for B4
- fold 2aH (FcgRIIaH): 11.8 fold
- fold 3aV (FcgRIIIaV): 102 fold
- fold 2aR (FcgRIIaR): 25.5 fold
- fold 3aF (FcgRIIIaF): 107 fold
- fold 2b (FcgRIIb): 15 fold

B6: H240-Kn220/H240-Hl068/L73-k0 (antibody, human IgG1, kappa)
heavy 1: B4 heavy 1 with A233M, Q234Y, E269D, A326D
heavy 2: B4 heavy 2 with M329K
light: B4 light
notes: as for B4
- fold 2aH (FcgRIIaH): 15.3 fold
- fold 3aV (FcgRIIIaV): 96 fold
- fold 2aR (FcgRIIaR): 29.6 fold
- fold 3aF (FcgRIIIaF): 82.9 fold
- fold 2b (FcgRIIb): 20.6 fold

B7: H240-Kn222/H240-Hl068/L73-k0 (antibody, human IgG1, kappa)
heavy 1: B4 heavy 1 with Q234Y, E269D, A326D
heavy 2: B4 heavy 2 with M329K
light: B4 light
notes: as for B4
- fold 2aH (FcgRIIaH): 10.6 fold
- fold 3aV (FcgRIIIaV): 88.9 fold
- fold 2aR (FcgRIIaR): 26.4 fold
- fold 3aF (FcgRIIIaF): 87.9 fold
- fold 2b (FcgRIIb): 17.4 fold

B8: H240-Kn218/H240-Hl068/L73-k0 (antibody, human IgG1, kappa)
heavy 1: B4 heavy 1 with A233Q, Q234Y, E269D, A326D
heavy 2: B4 heavy 2 with M329K
light: B4 light
notes: as for B4
- fold 2aH (FcgRIIaH): 15.8 fold
- fold 3aV (FcgRIIIaV): 96 fold
- fold 2aR (FcgRIIaR): 20 fold
- fold 3aF (FcgRIIIaF): 82.9 fold
- fold 2b (FcgRIIb): 15 fold

B9: H240-Kn219/H240-Hl068/L73-k0 (antibody, human IgG1, kappa)
heavy 1: B4 heavy 1 with A233I, Q234Y, E269D, A326D
heavy 2: B4 heavy 2 with M329K
light: B4 light
notes: as for B4
- fold 2aH (FcgRIIaH): 26 fold
- fold 3aV (FcgRIIIaV): 98 fold
- fold 2aR (FcgRIIaR): 52.9 fold
- fold 3aF (FcgRIIIaF): 107 fold
- fold 2b (FcgRIIb): 36.7 fold

B10: H240-Kn215/H240-Hl076/L73-k0 (antibody, human IgG1, kappa)
heavy 1: B4 heavy 1 with A233H
heavy 2: B4 heavy 2
light: B4 light
notes: as for B4
- fold 2aH (FcgRIIaH): 2.1 fold
- fold 3aV (FcgRIIIaV): 70.6 fold
- fold 2aR (FcgRIIaR): 0.7 fold
- fold 3aF (FcgRIIIaF): 112 fold
- fold 2b (FcgRIIb): 0.5 fold

B11: H240-Kn214/H240-Hl076/L73-k0 (antibody, human IgG1, kappa)
heavy 1: B4 heavy 1 with A233G
heavy 2: B4 heavy 2
light: B4 light
notes: as for B4
- fold 2aH (FcgRIIaH): 1.6 fold
- fold 3aV (FcgRIIIaV): 60 fold
- fold 2aR (FcgRIIaR): 0.7 fold
- fold 3aF (FcgRIIIaF): 85.3 fold
- fold 2b (FcgRIIb): 0.5 fold

B12: H240-Kn217/H240-Hl068/L73-k0 (antibody, human IgG1, kappa)
heavy 1: B4 heavy 1 with A233D, Q234Y, E269D, A326D
heavy 2: B4 heavy 2 with M329K
light: B4 light
notes: as for B4
- fold 2aH (FcgRIIaH): 6.8 fold
- fold 3aV (FcgRIIIaV): 126 fold
- fold 2aR (FcgRIIaR): 26.4 fold
- fold 3aF (FcgRIIIaF): 121 fold
- fold 2b (FcgRIIb): 27.5 fold

B13: H240-Kn224/H240-Hl068/L73-k0 (antibody, human IgG1, kappa)
heavy 1: B4 heavy 1 with A233H, Q234Y, E269D, A326D
heavy 2: B4 heavy 2 with M329K
light: B4 light
notes: as for B4
- fold 2aH (FcgRIIaH): 9.1 fold
- fold 3aV (FcgRIIIaV): 90.6 fold
- fold 2aR (FcgRIIaR): 13.7 fold
- fold 3aF (FcgRIIIaF): 72.5 fold
- fold 2b (FcgRIIb): 9.2 fold

B14: H240-Kn216/H240-Hl068/L73-k0 (antibody, human IgG1, kappa)
heavy 1: B4 heavy 1 with A233V, Q234Y, E269D, A326D
heavy 2: B4 heavy 2 with M329K
light: B4 light
notes: as for B4
- fold 2aH (FcgRIIaH): 16.3 fold
- fold 3aV (FcgRIIIaV): 104 fold
- fold 2aR (FcgRIIaR): 32.2 fold
- fold 3aF (FcgRIIIaF): 85.3 fold
- fold 2b (FcgRIIb): 20.6 fold

B15: H240-Kn223/H240-Hl068/L73-k0 (antibody, human IgG1, kappa)
heavy 1: B4 heavy 1 with A233G, Q234Y, E269D, A326D
heavy 2: B4 heavy 2 with M329K
light: B4 light
notes: as for B4
- fold 2aH (FcgRIIaH): 5.5 fold
- fold 3aV (FcgRIIIaV): 84.2 fold
- fold 2aR (FcgRIIaR): 11.9 fold
- fold 3aF (FcgRIIIaF): 69 fold
- fold 2b (FcgRIIb): 11.8 fold
